From paper PMC6366758 (2019)

B1: Motavizumab (antibody, V domains shown)
VH: QVTLRESGPALVKPTQTLTLTCTFSGFSLSTAGMSVGWIRQPPGKALEWLADIWWDDKKHYNPSLKDRLTISKDTSKNQVVLKVTNMDPADTATYYCARDMIFNFYFDVWGQGTTVTVSS
VL: DIQMTQSPSTLSASVGDRVTITCSASSRVGYMHWYQQKPGKAPKLLIYDTSKLASGVPSRFSGSGSGTEFTLTISSLQPDDFATYYCFQGSGYPFTFGGGTKVEIK
B2: R4.C6 monoclonal antibody (antibody, V domains shown)
VH: EVQLQQSGPELVKPGASVKISCKASGYAFSNSWMSWVKQRPGKGLEWIGRLFPADGDITYNGHFKDKAALTADKSSNTAYIQLSSLTSEDSAVYFCARMDNSEVFWGQGTLVTVSA
VL: DILLTQSQKFMSTSVGDRVSITCKASQNVRTGVSWYQRKPGQSPKALIYLASNRHTGVPDRFTGRGSGTDFTLTISEVQSEDLADYFCLQHWTVPYTFGGGTKLEIK

Experiments:
Post-fusion F [1] = target: T1, Post-fusion F (human respiratory syncytial virus A2 …); assay: SPR
Post-fusion F [2] = target: T1, Post-fusion F; assay: SPR; remark: listed apart in the source

Binder | koff (Post-fusion F [1]) [s⁻¹] | Kd (Post-fusion F [2]) [nM]
B1 | 1.44e-05 | 0.04
B2 | 3.74e-05 | –
